Series [1] has as its target T1, DrRuvC (Deinococcus radiodurans, UniProt Q9RX75 1-179).
T1 sequence: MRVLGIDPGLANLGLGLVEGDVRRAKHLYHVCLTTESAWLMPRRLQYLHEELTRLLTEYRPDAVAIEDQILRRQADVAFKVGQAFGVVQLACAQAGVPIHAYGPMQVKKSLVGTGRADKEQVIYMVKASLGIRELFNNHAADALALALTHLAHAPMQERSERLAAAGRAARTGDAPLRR
The series is described as follows: EMSA; EMSA: 100 nM 6-FAM substrate, 50 mM Tris-HCl pH 8.0, 125 mM NaCl, 10 ug/mL BSA, 1 mM TCEP, 5% glycerol, 30 C 10 min; 5% native PAGE in 0.5x Tris-borate. Particulars: protein: recombinant, tags: N-terminal His-MBP-TEV, removed by TEV, chain copies: 2, label: 5'-6-FAM on J31-1. Background: A gel shift assay detects complexes by their altered migration in electrophoresis.

Series [2] has as its target T1, DrRuvC. The series is described as follows: EMSA; no obvious specific complex band; EMSA: 100 nM 6-FAM substrate, 50 mM Tris-HCl pH 8.0, 125 mM NaCl, 10 ug/mL BSA, 1 mM TCEP, 5% glycerol, 30 C 10 min; 5% native PAGE in 0.5x Tris-borate. Particulars: protein: recombinant; tags: N-terminal His-MBP-TEV, removed by TEV; chain copies: 2; label: 5'-6-FAM on J31-1; blunt, nick between J31-5 and J31-7.

Series [3] deals with the molecule itself. The series is described as follows: SEC; analytical Superdex 75 10/300GL, 0.3 mL/min, 20 mM Tris pH 8.0, 200 mM NaCl, 0.5 mM TCEP; 100 uL of protein at 2 mg/mL loaded; calibrated with protein standards. In general terms: SEC sorts molecules by how far they enter the pores of the column.

B1: mobile HJ (HJ31) (structured_DNA)
DNA 1: GCTAGCCACAGCCATTCGTACGATTGCGGGA
DNA 2: TCCCGCAATCGTACGAAACCGAGCACGATCT
DNA 3: AGATCGTGCTCGGTTTCGTACCAGATGCCAT
DNA 4: ATGGCATCTGGTACGAATGGCTGTGGCTAGC
For the molecule B1, in series [1] (four-way junction with mobile homologous core, 4 strands), the dissociation constant Kd is roughly 150 nM.

B2: nicked HJ (structured_DNA)
DNA 1: B1 DNA 1
DNA 2: TCCCGCAATCGTCCGTTTCCGAGCACGATCT
DNA 3: AGATCGTGCTCGGAAA
DNA 4: GCCTGCAGATGCCAT
DNA 5: ATGGCATCTGCAGGCAATGGCTGTGGCTAGC
Take B2: the Kd in series [1] (3'-OH and 5'-OH at nick, four-way junction, nick in strand opposite J31-1, 5 strands) was roughly 150 nM.

B3: nicked duplex (dsDNA)
DNA 1: B1 DNA 1
DNA 2: TCCCGCAATCGTACG
DNA 3: AATGGCTGTGGCTAGC
Regarding B3, in series [2], the Kd was roughly 408 nM.

B4: immobile HJ (structured_DNA)
DNA 1: B1 DNA 1
DNA 2: B2 DNA 2
DNA 3: AGATCGTGCTCGGAAAGCCTGCAGATGCCAT
DNA 4: B2 DNA 5
On to B4, for which, in series [1] (four-way junction, 4 strands), the dissociation constant (Kd) was roughly 150 nM.

B5: replication fork (structured_DNA)
DNA 1: B1 DNA 1
DNA 2: B2 DNA 2
DNA 3: AGATCGTGCTCGGAAA
DNA 4: AATGGCTGTGGCTAGC
Regarding B5, the dissociation constant Kd in series [1] (three-way junction with nick at junction, 4 strands) is roughly 410 nM.

B6: Y-junction (structured_DNA)
DNA 1: B1 DNA 1
DNA 2: B2 DNA 2
DNA 3: AGATCGTGCTCGGAAAAATGGCTGTGGCTAGC
B6: in series [1] (three-way junction, 3 strands), the dissociation constant (Kd) is roughly 425 nM.

B7: RuvC from Deinococcus radiodurans (enzyme, UniProt Q9RX75 1-179, looked up)
chain: T1 sequence
notes: Holliday junction resolvase RuvC, Deinococcus radiodurans, full-length gene, residues 1 to 179, amplified from genomic DNA; Expressed from pET28-HMT (His-MBP-TEV); tag removed with TEV protease, so residues of the TEV site may be left at the N-terminus; also called DrRuvC; dr0440; source: E. coli Rossetta (DE3), purified (HisTrap, TEV cleavage, HisTrap, Heparin, Superdex 75); not shown: His6, …
Take B7: in series [3], the “stoichiometry N” value was determined as 2.

As usually defined, the Kd is the equilibrium constant for the complex coming apart. Broadly, the stoichiometry N is the number of molecules, sites or subunits per partner or assembly.

For the origin of these results see PMC9601230 (mBio, 2022).
